Laboratory results from US20060018919A1.
Ends that are not written are not given here.

molecular target: target rabbit anti-LOS antibody; assay: peptide ELISA, peptide coupled to NucleoLink strip, target antibody 0.4 ug/well

Row | Binder | Binding reactivity (OD405)
1 | NMMRFTSQPPNNGGGS (also: coupled via C-terminal carboxyl to NucleoLink strips) [synthetic peptide 1 … with C-terminal GGGS spacer] | 0.4
2 | NMMNYIMDPRTHGGGS (also: coupled via C-terminal carboxyl to NucleoLink strips) [synthetic peptide 2 … with C-terminal GGGS spacer] | 2.52
3 | NMMKYISPPIFLGGGS (also: coupled via C-terminal carboxyl to NucleoLink strips) [synthetic peptide 3 … with C-terminal GGGS spacer] | 1.11
4 | NMMRFTELSTPSGGGS (also: coupled via C-terminal carboxyl to NucleoLink strips) [synthetic peptide 4 … with C-terminal GGGS spacer] | 0.99
5 | TLAHHKKPWILRGGGS (also: coupled via C-terminal carboxyl to NucleoLink strips) [synthetic peptide 5 … (control peptide from an unrelated clone) with C-terminal GGGS spacer] | 0.33

molecular target: target rabbit anti-LOS antibody; assay: capture ELISA, phage on coated antibody; OD over irrelevant rabbit antibody

Row | Binder | Fold rise of ELISA value [fold]
6 | NMMRFTELSTPSGGGS (peptide, not shown: large carriers) [phage clone 2-15] | 1510
